Measurements taken from PMC3021567, “Gene expression profiling of connective tissue growth factor (CTGF) stimulated primary human tenon fibroblasts reveals an inflammatory and wound healing response in vitro” (Molecular Vision, 2011).

Molecular target: T1, recombinant human connective tissue growth factor (human, UniProt P29279 27-349)
T1 construct: signal peptide in the construct; connective tissue growth factor (CTGF), human, cDNA for full-length rhCTGF aa 1-349, Swiss-Prot P29279; secreted into the supernatant of HEK293T cells; The purified protein runs as two bands, 36 kDa (unglycosylated) and 38 kDa (glycosylated); No tag is mentioned; also called hCTGF; rhCTGF
T1 sequence (looked up): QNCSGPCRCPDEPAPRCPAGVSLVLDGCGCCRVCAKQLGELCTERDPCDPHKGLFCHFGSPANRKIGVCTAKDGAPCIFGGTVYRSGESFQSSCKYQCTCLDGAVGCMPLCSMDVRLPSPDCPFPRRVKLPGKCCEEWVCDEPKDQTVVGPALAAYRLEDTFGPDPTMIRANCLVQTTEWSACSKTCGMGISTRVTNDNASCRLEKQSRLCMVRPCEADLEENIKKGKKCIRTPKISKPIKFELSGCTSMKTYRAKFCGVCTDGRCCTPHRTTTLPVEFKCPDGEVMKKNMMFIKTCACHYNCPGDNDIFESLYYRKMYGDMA
Assay: SPR; BIACORE 2000; biotinylated BMP-2 immobilised on a streptavidin-coated CM5 chip at about 500 RU; CTGF flowed over at 10 ul/min, 25 °C; association 5 min, dissociation 3 min; regeneration with 4 M MgCl2; kinetic data fitted to a 1:1 Langmuir model; two independent experiments, at least six concentrations; apparent KD
Conditions: both partners purified

- Kd: 400 nM
B1: bone morphogenetic protein 2 (ligand, UniProt P12643 283-396, looked up)
chain: QAKHKQRKRLKSSCKRHPLYVDFSDVGWNDWIVAPPGYHAFYCHGECPFPLADHLNSTNHAIVQTLVNSVNSKIPKACCVPTELSAISMLYLDENEKVVLKNYQDMVVEGCGCR
modifications: biotin (biotinylated BMP-2; site not stated)
notes: bone morphogenetic protein 2 (BMP-2); also called BMP-2; source: expressed and purified as described [19]
